Source: US20240158515A1 (Regeneron, published 2024)

Legend:
[1] = biological target: T1, cynomolgus FGFR3b expressed with a C-terminal myc-myc-hexahistidine tag (mfFGFR3b.mmH) (cynomolgus); test: SPR Biacore, mAb captured on anti-hFc, 25C
T1 construct: also called REGN3521; mf FGFR3b ecto (R357G)(E23-G377;R357G).mmH
T1 chain: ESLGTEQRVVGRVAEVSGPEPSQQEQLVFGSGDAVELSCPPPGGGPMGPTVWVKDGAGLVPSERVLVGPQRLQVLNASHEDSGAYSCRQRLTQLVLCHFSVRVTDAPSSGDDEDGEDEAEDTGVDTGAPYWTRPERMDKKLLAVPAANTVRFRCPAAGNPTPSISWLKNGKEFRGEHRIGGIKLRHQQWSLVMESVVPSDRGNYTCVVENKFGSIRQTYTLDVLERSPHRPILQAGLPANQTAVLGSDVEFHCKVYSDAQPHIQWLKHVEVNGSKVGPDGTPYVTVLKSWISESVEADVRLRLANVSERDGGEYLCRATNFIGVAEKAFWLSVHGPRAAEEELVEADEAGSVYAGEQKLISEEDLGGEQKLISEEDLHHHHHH
Method: (§1) The CM5 Biacore sensor surface was derivatized by amine coupling with a monoclonal mouse anti-human Fc monoclonal antibody (REGN2567). […] Antibody-reagent association was monitored for 5 minutes while dissociation in HBS-EP running buffer was monitored for 10 minutes. At the end of each cycle, the anti-FGFR3 antibody capture surface was regenerated using a 10 sec injection of 20 mM phosphoric acid. All binding kinetics experiments were performed at 25° C.
(§2) The specific SPR-Biacore sensorgrams were obtained by a double referencing procedure. The double referencing was performed by first subtracting the signal of each injection over a reference surface (anti-hFc) from the signal over the experimental surface (anti-hFc-captured anti-FGFR3 antibodies) thereby removing contributions from refractive index changes. In addition, running buffer injections were performed to allow subtraction of the signal changes resulting from the dissociation of captured antibodies from the coupled anti-hFc surface. Kinetic association (kₐ) and dissociation (kd) rate constants were determined by fitting the real-time sensorgrams to a 1:1 binding model using Scrubber v2.0c curve fitting software.

[2] = biological target: T2, human FGFR3b expressed with a C-terminal myc-myc-hexahistidine tag (hFGFR3b.mmH) (human); test: SPR Biacore, mAb captured on anti-hFc, 25C
T2 construct: also called REGN3152; monomeric human FGFR3b
T2 chain: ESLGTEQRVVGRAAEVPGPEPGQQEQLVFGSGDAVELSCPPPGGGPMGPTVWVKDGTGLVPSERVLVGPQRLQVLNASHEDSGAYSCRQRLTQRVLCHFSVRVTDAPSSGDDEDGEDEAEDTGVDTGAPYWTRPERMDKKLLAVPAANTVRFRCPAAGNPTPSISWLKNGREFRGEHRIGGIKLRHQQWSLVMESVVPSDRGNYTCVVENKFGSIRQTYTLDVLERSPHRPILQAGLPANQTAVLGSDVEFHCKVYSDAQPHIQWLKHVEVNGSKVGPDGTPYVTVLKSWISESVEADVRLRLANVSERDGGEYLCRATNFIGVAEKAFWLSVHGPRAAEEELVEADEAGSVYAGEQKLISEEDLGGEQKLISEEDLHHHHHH
Method: as §1, §2

[3] = biological target: T3, murine FGFR3b expressed with a C-terminal myc-myc-hexahistidine tag (mFGFR3b.mmH) (murine); test: SPR Biacore, mAb captured on anti-hFc, 25C
T3 construct: also called REGN3215; monomeric murine FGFR3b
T3 chain: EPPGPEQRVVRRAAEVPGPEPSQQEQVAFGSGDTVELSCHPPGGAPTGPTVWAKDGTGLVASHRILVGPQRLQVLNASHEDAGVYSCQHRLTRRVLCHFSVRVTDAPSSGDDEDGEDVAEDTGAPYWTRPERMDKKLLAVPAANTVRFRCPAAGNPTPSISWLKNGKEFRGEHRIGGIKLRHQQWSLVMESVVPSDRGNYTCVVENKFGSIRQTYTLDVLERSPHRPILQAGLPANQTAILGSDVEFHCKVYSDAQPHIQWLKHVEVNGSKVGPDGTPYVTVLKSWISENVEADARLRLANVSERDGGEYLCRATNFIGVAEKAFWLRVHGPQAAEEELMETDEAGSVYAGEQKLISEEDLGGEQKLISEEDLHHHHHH
Method: as §1, §2

[4] = biological target: T4, human FGFR3b expressed with a C-terminal murine Fc tag (hFGFR3b.mFc) (human); test: SPR Biacore, mAb captured on anti-hFc, 25C
T4 construct: called dimeric; also called REGN3153; dimeric human FGFR3b
T4 chain: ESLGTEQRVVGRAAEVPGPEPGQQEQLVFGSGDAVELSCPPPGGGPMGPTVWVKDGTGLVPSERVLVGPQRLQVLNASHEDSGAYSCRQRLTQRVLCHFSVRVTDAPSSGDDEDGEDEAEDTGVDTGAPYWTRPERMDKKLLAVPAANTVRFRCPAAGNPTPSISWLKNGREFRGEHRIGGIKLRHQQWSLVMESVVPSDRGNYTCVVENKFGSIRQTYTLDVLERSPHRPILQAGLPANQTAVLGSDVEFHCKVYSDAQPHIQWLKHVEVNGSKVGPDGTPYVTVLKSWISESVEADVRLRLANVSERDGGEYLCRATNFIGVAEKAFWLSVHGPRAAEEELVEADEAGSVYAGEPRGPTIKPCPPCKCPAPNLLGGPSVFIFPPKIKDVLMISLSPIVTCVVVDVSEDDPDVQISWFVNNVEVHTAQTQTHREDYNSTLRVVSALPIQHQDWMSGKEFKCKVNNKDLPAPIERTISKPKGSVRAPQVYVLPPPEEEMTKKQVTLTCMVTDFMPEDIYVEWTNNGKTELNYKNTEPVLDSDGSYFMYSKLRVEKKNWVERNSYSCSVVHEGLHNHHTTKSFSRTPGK
Method: as §1, §2

[5] = biological target: T5, human FGFR3c expressed with a C-terminal myc-myc-hexahistidine tag (hFGFR3c.mmH) (human, UniProt P22607 23-375); test: SPR Biacore, mAb captured on anti-hFc, 25C; row marked NB
T5 construct: also called REGN3155; monomeric human FGFR3c
Method: as §1, §2

[6] = biological target: T5, human FGFR3c expressed with a …; test: SPR Biacore, mAb captured on anti-hFc, 25C
Method: as §1, §2

[7] = biological target: T4, human FGFR3b expressed with a …; test: competition ELISA: 4 nM hFGFR3b-mFc binding to plate-coated hFGF acidic
Method: The fixed concentration of hFGFR3b or hFGFR3c proteins was selected to be near the concentration that generated 50% of the maximal binding (EC₅₀ value) to plate-adhered hFGF acidic or hFGF basic protein. […] The plates were then developed using TMB substrate solution (BD Biosciences) according to the manufacturer's recommended procedure and absorbance at 450 nm was measured on a Victor X5 plate reader.
Binding data were analyzed using a sigmoidal (four-parameter logistic) dose-response model using GraphPad Prism software. […] Percent blocking of FGFR3 antibody at a given concentration was calculated based on the formula shown below.
The ability of anti-FGFR3 antibodies to block human FGFR3b binding to hFGF acidic protein or hFGFR3c binding to hFGF acidic or hFGF basic proteins was evaluated using a sandwich ELISA-based blocking assay.

| Binder | 90 nM mfFGFR3b.mmH Bind (RU) [1] | Kd [1] | koff [1] | kon [1] | t½ [1] | 90 nM hFGFR3b.mmH Bind (RU) [2] | Kd [2] | koff [2] | kon [2] | t½ [2] | 90 nM mFGFR3b.mmH Bind (RU) [3] | koff [3] | kon [3] | t½ [3] | 30 nM hFGFR3b.mFc Bind (RU) [4] | Kd [4] | koff [4] | kon [4] | t½ [4] | 90 nM hFGFR3c.mmH Bind (RU) [6] | also measured |
| --- | --- | --- | --- | --- | --- | --- | --- | --- | --- | --- | --- | --- | --- | --- | --- | --- | --- | --- | --- | --- | --- |
| H4H30076P (antibody, human IgG4 S228P, kappa, V domains shown) VH: EVQLVESGGGLVQPGGSLRLSCAASGFTVSSNYMSWVRQAPGKGLEWVSIIYSGGHTYYSDSVKGRFTISRHNSKNTLYLQMNSLRGGDTAVYYCARGYTSGWYGFDFWGQGTLVTVSS VL: DIQMTQSPSSVSASVGDRVTITCRASQGISTWLAWYQQKPGKAPKLLIYAASSLQSGVPSRFSGTGSGTDFTLTISSLQPEDFATYYCQQTNSFPWTFGQGTKVEIKR | 180 RU | 0.165 nM | 3.3e-05 s⁻¹ | 200000 M⁻¹ s⁻¹ | 350 min | 198 RU | 0.186 nM | 4.39e-05 s⁻¹ | 236000 M⁻¹ s⁻¹ | 263 min | 201 RU | 3.61e-05 s⁻¹ | 256000 M⁻¹ s⁻¹ | 320 min | 204 RU | ≤ 0.0246 nM | ≤ 1e-05 s⁻¹ | 407000 M⁻¹ s⁻¹ | ≥ 1160 min | – | Kd [3]: 0.141 nM; 90 nM hFGFR3c.mmH Bind (RU) [5]: -9.7 RU |
| H4H30095P2 (antibody, human IgG4 S228P, kappa, V domains shown) VH: QVQLVQSGVEVKKPGASVKVSCKASGYTFKFYGISWVRQAPGQGLEWMGWISVYNGKTKYAQKLQGRVTMTTDTSTSTAYMELRSLRSDDTAVYFCARDGDYESSGYPFDYWGQGTLVTVSS VL: not shown | 206 RU | 8.29 nM | 0.00437 s⁻¹ | 527000 M⁻¹ s⁻¹ | 2.6 min | 239 RU | 7.16 nM | 0.005 s⁻¹ | 698000 M⁻¹ s⁻¹ | 2.3 min | – | – | – | – | 405 RU | 0.114 nM | 9.88e-05 s⁻¹ | 867000 M⁻¹ s⁻¹ | 117 min | 222 RU | Kd [6]: 7.88 nM; koff [6]: 0.00454 s⁻¹; kon [6]: 575000 M⁻¹ s⁻¹; t½ [6]: 2.5 min |
| H4H30093P2 (antibody, human IgG4 S228P, kappa, V domains shown, HCVR 82, LCVR 90) VH: QVQLVESGGGLVKPGGSLRLSCAASGFTFNDYPMSWIRQAPGKGLEWVSYITSSSGSTIYYADSVKGRFTISRDNAKNSLYLQMNSLRAEDTAVYYCAREVVVATIGGYYGMDVWGQGTTVTVSS VL: not shown | – | – | – | – | – | 217 RU | 5.14 nM | 0.00209 s⁻¹ | 406000 M⁻¹ s⁻¹ | 5.5 min | 11.2 RU | 0.00967 s⁻¹ | 136000 M⁻¹ s⁻¹ | 1.2 min | 317 RU | 0.0265 nM | 1.55e-05 s⁻¹ | 585000 M⁻¹ s⁻¹ | 745 min | 182 RU | binding result [1]: no binding (tested: 90 nM); Kd [6]: 9.2 nM; koff [6]: 0.00334 s⁻¹; kon [6]: 363000 M⁻¹ s⁻¹; t½ [6]: 3.5 min; Kd [3]: 70.9 nM; % Blocking at 200 nM mAb [7]: 91%; IC50 [7]: 2.5 nM |
| H4H30105P2 (antibody, human IgG4 S228P, kappa, V domains shown) VH: EVQLVQSGAEVKKPGESLKISCKGSGYSFTSYWIAWVRQMPGKGLEWMGIIYPGDSDTRYSPSFQGQVTMSADKSIRIAYLQWSSLKASDTAMYYCARLDYSGSWFDYWGQGTLVTVSS VL: not shown | 67.8 RU | 14.7 nM | 0.00802 s⁻¹ | 547000 M⁻¹ s⁻¹ | 1.4 min | 158 RU | – | 0.00511 s⁻¹ | 438000 M⁻¹ s⁻¹ | 2.3 min | 8.3 RU | 0.00122 s⁻¹ | 149000 M⁻¹ s⁻¹ | 9.5 min | – | – | – | – | – | 131 RU | koff [6]: 0.00652 s⁻¹; kon [6]: 387000 M⁻¹ s⁻¹; t½ [6]: 1.8 min |
